Read-outs that look alike come from different tables or passages of the source. Values belong to the binder of their own block, whether it stands above or below them.
Experiments:
BMPRII-Fc homodimer = molecular target: T1, BMPRII-Fc homodimer (UniProt Q13873 27-150); assay: Biacore SPR; kinetics indeterminate (transient)
T1 construct: extracellular domain
T1 sequence (looked up): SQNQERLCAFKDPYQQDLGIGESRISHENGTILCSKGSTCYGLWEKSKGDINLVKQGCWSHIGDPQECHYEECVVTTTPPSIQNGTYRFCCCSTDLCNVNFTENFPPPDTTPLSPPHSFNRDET

ALK3-Fc homodimer [1] = molecular target: T2, ALK3-Fc homodimer (UniProt P36894 24-152); assay: Biacore SPR
T2 construct: extracellular domain
Procedure: (§1) Ligands were injected and allowed to flow over the captured receptor protein.

ALK3-Fc homodimer [2] = molecular target: T2, ALK3-Fc homodimer; assay: Biacore SPR; remark: listed apart in the source
Procedure: as §1

T2 sequence (P36894 24-152): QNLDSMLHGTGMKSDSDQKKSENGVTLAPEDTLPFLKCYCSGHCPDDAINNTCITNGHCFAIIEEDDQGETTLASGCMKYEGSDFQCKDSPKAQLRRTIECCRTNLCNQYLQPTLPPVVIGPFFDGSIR

- Kd (BMPRII-Fc homodimer): > 2000 nM
B1: BMP2 (ligand, UniProt P12643 283-396, looked up)
chain: QAKHKQRKRLKSSCKRHPLYVDFSDVGWNDWIVAPPGYHAFYCHGECPFPLADHLNSTNHAIVQTLVNSVNSKIPKACCVPTELSAISMLYLDENEKVVLKNYQDMVVEGCGCR

- Kd (ALK3-Fc homodimer [1]): 40 nM
- koff (ALK3-Fc homodimer [1]): 0.0013 s⁻¹
- kon (ALK3-Fc homodimer [1]): 34000 M⁻¹ s⁻¹
- Kd (BMPRII-Fc homodimer): > 88 nM
- Kd (ALK3-Fc homodimer [2]): 40 nM
- koff (ALK3-Fc homodimer [2]): 0.0013 s⁻¹
- kon (ALK3-Fc homodimer [2]): 34000 M⁻¹ s⁻¹
B2: GDF6 (ligand, UniProt Q6KF10 336-455, looked up)
chain: TAFASRHGKRHGKKSRLRCSKKPLHVNFKELGWDDWIIAPLEYEAYHCEGVCDFPLRSHLEPTNHAIIQTLMNSMDPGSTPPSCCVPTKLTPISILYIDAGNNVVYKQYEDMVVESCGCR
notes: also called BMP13

Source: US20190225669A1 (ACCELERON PHARMA, published 2019)
